# T1: human beta-Klotho (human, UniProt Q86Z14 1-1044)
# T1 sequence (looked up): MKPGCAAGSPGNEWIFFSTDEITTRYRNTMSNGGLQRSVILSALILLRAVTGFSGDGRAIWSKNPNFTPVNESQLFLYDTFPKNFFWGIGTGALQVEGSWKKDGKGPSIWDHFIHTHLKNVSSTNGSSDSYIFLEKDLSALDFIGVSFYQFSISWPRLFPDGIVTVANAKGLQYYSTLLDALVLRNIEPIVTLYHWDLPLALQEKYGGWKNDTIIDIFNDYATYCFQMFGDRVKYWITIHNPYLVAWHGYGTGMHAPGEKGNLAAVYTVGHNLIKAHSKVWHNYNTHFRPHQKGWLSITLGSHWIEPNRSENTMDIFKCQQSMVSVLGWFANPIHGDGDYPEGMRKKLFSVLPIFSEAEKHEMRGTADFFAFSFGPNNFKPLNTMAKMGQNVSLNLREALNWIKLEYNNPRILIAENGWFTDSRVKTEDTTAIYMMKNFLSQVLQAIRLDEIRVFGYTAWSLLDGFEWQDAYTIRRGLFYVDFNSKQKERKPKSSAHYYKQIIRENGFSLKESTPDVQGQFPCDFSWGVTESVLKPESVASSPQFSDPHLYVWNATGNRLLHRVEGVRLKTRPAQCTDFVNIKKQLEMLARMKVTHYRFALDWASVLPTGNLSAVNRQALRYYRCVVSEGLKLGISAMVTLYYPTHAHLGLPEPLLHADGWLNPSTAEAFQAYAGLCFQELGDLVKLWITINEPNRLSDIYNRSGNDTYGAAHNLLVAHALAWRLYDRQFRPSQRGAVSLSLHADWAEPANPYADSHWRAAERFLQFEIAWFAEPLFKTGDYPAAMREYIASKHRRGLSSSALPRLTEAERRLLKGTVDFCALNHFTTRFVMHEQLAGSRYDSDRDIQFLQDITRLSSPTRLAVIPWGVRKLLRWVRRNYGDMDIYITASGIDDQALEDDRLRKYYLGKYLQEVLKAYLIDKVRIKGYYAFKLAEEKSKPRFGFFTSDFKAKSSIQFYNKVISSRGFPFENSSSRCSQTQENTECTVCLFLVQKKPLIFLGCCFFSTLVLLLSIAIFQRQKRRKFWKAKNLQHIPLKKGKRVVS
# Biological target: T1, human beta-Klotho
# Experiment: cell-based or functional assay
molecule,measurement,value
"[Q28R, K56R, K59R, K69R, D102T, D121Q, K122R, L166F, S167G, M168L, G170T] Ala-FGF21 (from UniProt Q9NSA1 28-209) (ligand)",pERK-HEK293-Beta-klotho without HSA [EC50 (nM)] Mean Value,0.8 nM
"N-alpha-(4-{[2-(2-{2-[2-(2-{2-[(S)-4-carboxy-4-(17-carboxyheptadecanoylamino)butyrylamino]ethoxy}ethoxy)acetylamino]ethoxy}ethoxy)acetylamino]methyl}benzyl) [K56R, K59R, K69R, D102T, D121Q, K122R, L166F, S167G, M168L, G170T] Ala-FGF21 (Compound III) (from UniProt Q9NSA1 28-209) (ligand)",pERK-HEK293-Beta-klotho without HSA [EC50 (nM)] Mean Value,1 nM
Met-FGF21 (Compound A) (ligand) MHPIPDSSPLLQFGGQVRQRYLYTDDAQQTEAHLEIREDGTVGGAADQSPESLLQLKALKPGVIQILGVKTSRFLCQRPDGALYGSLHFDPEACSFRELLLEDGYNVYQSEAHGLPLHLPGNKSPHRDPAPRGPARFLPLPGLPPALPEPPGILAPQPPDVGSSDPLSMVGPSQGRSPSYAS,pERK-HEK293-Beta-klotho without HSA [EC50 (nM)] Mean Value,1.6 nM
"[K56R, K59R, K69R, K122R]Gly-FGF21 (ligand) GHPIPDSSPLLQFGGQVRQRYLYTDDAQQTEAHLEIREDGTVGGAADQSPESLLQLRALRPGVIQILGVRTSRFLCQRPDGALYGSLHFDPEACSFRELLLEDGYNVYQSEAHGLPLHLPGNRSPHRDPAPRGPARFLPLPGLPPALPEPPGILAPQPPDVGSSDPLSMVGPSQGRSPSYAS",pERK-HEK293-Beta-klotho without HSA [EC50 (nM)] Mean Value,8.3 nM
"N-alpha-bis-(4-{[2-(2-{2-[2-(2-{2-[(S)-4-carboxy-4-(17-carboxyheptadecanoylamino)butyrylamino]ethoxy}ethoxy)acetylamino]ethoxy}ethoxy)acetylamino]methyl}benzyl) … (ligand, alpha amino group of the N-terminal Gly carries two 4-{[2-(2-{2-[2-(2-{2-[(S)-4-carboxy-4-(17-carboxyheptadecanoylamino)butyrylamino]ethoxy}ethoxy)acetylamino]ethoxy}ethoxy)acetylamino]methyl}benzyl groups) GHPIPDSSPLLQFGGQVRQRYLYTDDAQQTEAHLEIREDGTVGGAADQSPESLLQLRALRPGVIQILGVRTSRFLCQRPDGALYGSLHFDPEACSFRELLLEDGYNVYQSEAHGLPLHLPGNRSPHRDPAPRGPARFLPLPGLPPALPEPPGILAPQPPDVGSSDPLSMVGPSQGRSPSYAS",pERK-HEK293-Beta-klotho without HSA [EC50 (nM)] Mean Value,4.6 nM
[N121Q] Ala-FGF21 (ligand) AHPIPDSSPLLQFGGQVRQRYLYTDDAQQTEAHLEIREDGTVGGAADQSPESLLQLKALKPGVIQILGVKTSRFLCQRPDGALYGSLHFDPEACSFRELLLEDGYNVYQSEAHGLPLHLPGQKSPHRDPAPRGPARFLPLPGLPPALPEPPGILAPQPPDVGSSDPLSMVGPSQGRSPSYAS,pERK-HEK293-Beta-klotho without HSA [EC50 (nM)] Mean Value,2.3 nM
[N121Q]Met-FGF21 (ligand) MHPIPDSSPLLQFGGQVRQRYLYTDDAQQTEAHLEIREDGTVGGAADQSPESLLQLKALKPGVIQILGVKTSRFLCQRPDGALYGSLHFDPEACSFRELLLEDGYNVYQSEAHGLPLHLPGQKSPHRDPAPRGPARFLPLPGLPPALPEPPGILAPQPPDVGSSDPLSMVGPSQGRSPSYAS,pERK-HEK293-Beta-klotho without HSA [EC50 (nM)] Mean Value,1 nM
"[N121Q, L166F, S167G, M168L, P171L, S172E, Q173A, G174V, Y179F, A180E, des181]Ala-FGF21 (ligand) AHPIPDSSPLLQFGGQVRQRYLYTDDAQQTEAHLEIREDGTVGGAADQSPESLLQLKALKPGVIQILGVKTSRFLCQRPDGALYGSLHFDPEACSFRELLLEDGYNVYQSEAHGLPLHLPGQKSPHRDPAPRGPARFLPLPGLPPALPEPPGILAPQPPDVGSSDPFGLVGLEAVRSPSFE",pERK-HEK293-Beta-klotho without HSA [EC50 (nM)] Mean Value,0.7 nM
"N-alpha(4-{[2-(2-{2-[2-(2-{2-[(S)-4-Carboxy-4-(17-carboxyheptadecanoylamino)butyrylamino]-ethoxy}ethoxy)acetylamino]ethoxy}ethoxy)acetylamino]methyl}benzyl) … (ligand, alpha amino group of the N-terminal Ala carries one 4-{[2-(2-{2-[2-(2-{2-[(S)-4-carboxy-4-(17-carboxyheptadecanoylamino)butyrylamino]ethoxy}ethoxy)acetylamino]ethoxy}ethoxy)acetylamino]methyl}benzyl group) AHPIPDSSPLLQFGGQVRQRYLYTDDAQQTEAHLEIREDGTVGGAADQSPESLLQLKALKPGVIQILGVKTCRFLCQRPDGALYGSLHFDPEACSFRELLLEDGYNVYQSEAHGLPLHLPGQKSPHRDPAPRGPARFLPLPGLPPALPEPPGILAPQPPDVGSSDPFGLVGLEAVRSPSFE",pERK-HEK293-Beta-klotho without HSA [EC50 (nM)] Mean Value,0.4 nM
"[S71C, N121Q, L166F, S167G, M168L, P171L, S172E, Q173A, G174V, Y179F, A180E, des181]Ala-FGF21 (ligand) AHPIPDSSPLLQFGGQVRQRYLYTDDAQQTEAHLEIREDGTVGGAADQSPESLLQLKALKPGVIQILGVKTCRFLCQRPDGALYGSLHFDPEACSFRELLLEDGYNVYQSEAHGLPLHLPGQKSPHRDPAPRGPARFLPLPGLPPALPEPPGILAPQPPDVGSSDPFGLVGLEAVRSPSFE",pERK-HEK293-Beta-klotho without HSA [EC50 (nM)] Mean Value,0.6 nM
"[S71C, N121Q, L166F, S167G, M168L, des170, 173aA, G174V, Y179F, A180E, des181]Ala-FGF21 (ligand) AHPIPDSSPLLQFGGQVRQRYLYTDDAQQTEAHLEIREDGTVGGAADQSPESLLQLKALKPGVIQILGVKTCRFLCQRPDGALYGSLHFDPEACSFRELLLEDGYNVYQSEAHGLPLHLPGQKSPHRDPAPRGPARFLPLPGLPPALPEPPGILAPQPPDVGSSDPFGLVPSQAVRSPSFE",pERK-HEK293-Beta-klotho without HSA [EC50 (nM)] Mean Value,1.8 nM
"[S71C, N121Q, L166F, S167G, M168L, 173aA, G174V, Y179F, A180E, des181]Ala-FGF21 (ligand) AHPIPDSSPLLQFGGQVRQRYLYTDDAQQTEAHLEIREDGTVGGAADQSPESLLQLKALKPGVIQILGVKTCRFLCQRPDGALYGSLHFDPEACSFRELLLEDGYNVYQSEAHGLPLHLPGQKSPHRDPAPRGPARFLPLPGLPPALPEPPGILAPQPPDVGSSDPFGLVGPSQAVRSPSFE",pERK-HEK293-Beta-klotho without HSA [EC50 (nM)] Mean Value,0.4 nM
